Changes are numbered by the printed parent chain. In names and notes the source's numbering stands.
T1: human ANGPTL3/8 complex (human, UniProt Q9Y5C1 17-460; Q6UXH0 22-198, limits assumed)
T1 construct: also called hANGPTL3/8 complex; ANGTPL3/8 complex
T1 sequence 1: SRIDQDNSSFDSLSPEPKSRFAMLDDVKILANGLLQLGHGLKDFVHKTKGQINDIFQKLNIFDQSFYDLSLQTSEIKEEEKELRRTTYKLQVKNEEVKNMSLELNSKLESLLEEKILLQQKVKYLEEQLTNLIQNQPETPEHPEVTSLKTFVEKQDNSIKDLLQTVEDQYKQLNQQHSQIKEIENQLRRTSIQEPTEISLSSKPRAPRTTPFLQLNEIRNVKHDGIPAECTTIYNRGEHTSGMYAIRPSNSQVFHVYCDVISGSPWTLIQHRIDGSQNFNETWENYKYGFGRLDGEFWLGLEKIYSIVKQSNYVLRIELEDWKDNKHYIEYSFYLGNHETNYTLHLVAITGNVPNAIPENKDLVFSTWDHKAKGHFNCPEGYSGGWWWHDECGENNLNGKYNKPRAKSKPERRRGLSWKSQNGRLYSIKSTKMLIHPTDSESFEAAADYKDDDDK
T1 sequence 2: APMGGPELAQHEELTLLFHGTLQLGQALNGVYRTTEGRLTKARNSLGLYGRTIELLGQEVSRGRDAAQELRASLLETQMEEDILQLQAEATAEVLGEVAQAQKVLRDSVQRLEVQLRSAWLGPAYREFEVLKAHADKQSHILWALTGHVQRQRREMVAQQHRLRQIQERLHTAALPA

T2: human ANGPTL3 (human, UniProt Q9Y5C1 17-460)
T2 construct: Biotinylated in the ELISA assays; also called hANGPTL3; free ANGPTL3
T2 sequence: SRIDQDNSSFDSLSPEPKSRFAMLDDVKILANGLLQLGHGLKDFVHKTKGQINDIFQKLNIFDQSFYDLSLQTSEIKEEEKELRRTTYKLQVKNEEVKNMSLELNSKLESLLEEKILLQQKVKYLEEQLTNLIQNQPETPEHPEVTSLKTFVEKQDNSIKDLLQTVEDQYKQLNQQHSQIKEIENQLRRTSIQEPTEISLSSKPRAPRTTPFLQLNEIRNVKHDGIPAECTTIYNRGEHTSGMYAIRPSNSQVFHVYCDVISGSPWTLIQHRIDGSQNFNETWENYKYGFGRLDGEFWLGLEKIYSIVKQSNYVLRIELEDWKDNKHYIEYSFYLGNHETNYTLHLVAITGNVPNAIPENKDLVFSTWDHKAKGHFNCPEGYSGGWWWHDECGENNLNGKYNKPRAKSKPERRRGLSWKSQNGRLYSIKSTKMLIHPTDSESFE

T3: human ANGPTL8 (human, UniProt Q6UXH0 22-198)
T3 construct: Biotinylated in the ELISA assays; also called hANGPTL8; free ANGPTL8
T3 sequence: T1 sequence 2

T4: mouse ANGPTL3/8 complex (mouse, UniProt Q9R182 17-455; Q8R1L8 16-198, limits assumed)
T4 sequence (looked up) 1: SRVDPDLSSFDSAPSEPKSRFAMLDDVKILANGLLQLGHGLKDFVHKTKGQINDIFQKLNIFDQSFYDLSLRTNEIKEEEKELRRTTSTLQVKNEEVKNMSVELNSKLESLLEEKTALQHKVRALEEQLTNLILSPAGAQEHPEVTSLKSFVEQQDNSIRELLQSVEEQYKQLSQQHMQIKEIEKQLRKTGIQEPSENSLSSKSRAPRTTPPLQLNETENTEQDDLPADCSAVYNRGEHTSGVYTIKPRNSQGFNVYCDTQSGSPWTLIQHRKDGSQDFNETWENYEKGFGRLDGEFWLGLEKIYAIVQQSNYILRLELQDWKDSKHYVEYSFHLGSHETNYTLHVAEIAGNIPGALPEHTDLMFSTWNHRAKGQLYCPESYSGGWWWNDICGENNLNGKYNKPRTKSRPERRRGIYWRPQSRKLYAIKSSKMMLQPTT
T4 sequence (looked up) 2: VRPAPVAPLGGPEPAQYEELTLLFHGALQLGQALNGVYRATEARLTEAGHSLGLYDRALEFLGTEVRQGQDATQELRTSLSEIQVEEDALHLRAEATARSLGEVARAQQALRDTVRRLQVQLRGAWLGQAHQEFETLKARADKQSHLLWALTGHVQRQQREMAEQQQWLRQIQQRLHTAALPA

B1: anti-ANGPTL3/8 complex Ab having a LC of SEQ ID NO:5 and a HC of SEQ ID NO:6 (antibody, human IgG4 S228P, kappa, F234A L235A, V domains shown)
VH: QVTLKESGPTLVKPTQTLTLTCTFSGFSLSISGVGVGWIRQPPGKALEWLALIYRNDDKRYSPSLKSRLTITKDTSKNQVVLTLTNMDPVDTATYYCARTYSSGWYGNWFDPWGQGTLVTVSS
VL: DIVMTQTPLSLPVTPGEPASISCRSSQSLLDSDDGNTYLDWYLQKPGQSPQLLIYMLSYRASGVPDRFSGSGSGTDFTLKISRVEAEDVGIYYCMQRIEFPLTFGGGTKVEIKR
notes: In the ELISA assays tested as IgG from CHO supernatants; also called the Ab
B2: Ab with LC variant having a E99Q mutation (SEQ ID NO:25) and a HC of SEQ ID NO:6 (antibody, human IgG4 S228P, kappa, F234A L235A, V domains shown)
VH: B1 VH
VL: B1 VL with E99Q
notes: also called E99Q Variant Ab; E99Q Ab
B3: Ab with LC variant having a D33A mutation (SEQ ID NO:22) and a HC of SEQ ID NO:6 (antibody, human IgG4 S228P, kappa, F234A L235A, V domains shown)
VH: B1 VH
VL: B1 VL with D33A
notes: also called D33A Variant Ab; D33A Ab
B4: Ab with LC variant having a D31S mutation (SEQ ID NO:21) and a HC of SEQ ID NO:6 (antibody, human IgG4 S228P, kappa, F234A L235A, V domains shown)
VH: B1 VH
VL: B1 VL with D31S
notes: also called D31S Variant Ab; D31S Ab

Molecular target: T1, human ANGPTL3/8 complex
Assay: ELISA; Ab captured by anti-human Fc; biotinylated antigen at 0.046 nM
Procedure: (§1) ELISA Assay: Ab binding selectivity to either the ANGPTL3/8 complex, free ANGPTL3 or free ANGPTL8 is verified using standard ELISA assays. […] Ab from CHO supernatants after expression in CHO cells is then captured to the assay plate and results is an Ab concentration of 2 μg/ml. Biotinylated antigen (ANGPTL3, ANGPTL8 or ANGPTL3/8 complex) is added at varying concentrations by serial dilution to allow for Ab/antigen binding. Ab/antigen complexes are detected after the addition of alkaline phosphatase-conjugated neutravidin, and alkaline phosphatase substrate, and subsequent measurement of the optical density at 560 nm.

| OD at 560 nm [OD 560 nm] | Binder |
| --- | --- |
| 0.078 | B1 |
| 0.149 | B2 |
| 0.111 | B3 |
| 0.149 | B4 |

Molecular target: T2, human ANGPTL3
Assay: as above
Procedure: as §1

| OD at 560 nm [OD 560 nm] | Binder |
| --- | --- |
| 0.06 | B1 |
| 0.06 | B2 |
| 0.062 | B3 |
| 0.06 | B4 |

Molecular target: T3, human ANGPTL8
Assay: as above
Procedure: as §1

| OD at 560 nm [OD 560 nm] | Binder |
| --- | --- |
| 0.051 | B1 |
| 0.096 | B2 |
| 0.074 | B3 |
| 0.096 | B4 |

Molecular target: T1, human ANGPTL3/8 complex
Assay: ELISA; Ab captured by anti-human Fc; biotinylated antigen at 0.137 nM
Procedure: as §1

| OD at 560 nm [OD 560 nm] | Binder |
| --- | --- |
| 0.11 | B1 |
| 0.137 | B2 |
| 0.101 | B3 |
| 0.137 | B4 |

Molecular target: T2, human ANGPTL3
Assay: as above
Procedure: as §1

| OD at 560 nm [OD 560 nm] | Binder |
| --- | --- |
| 0.048 | B1 |
| 0.057 | B2 |
| 0.062 | B3 |
| 0.057 | B4 |

Molecular target: T3, human ANGPTL8
Assay: as above
Procedure: as §1

| OD at 560 nm [OD 560 nm] | Binder |
| --- | --- |
| 0.047 | B1 |
| 0.08 | B2 |
| 0.053 | B3 |
| 0.08 | B4 |

Molecular target: T4, mouse ANGPTL3/8 complex
Assay: cell-based or functional assay

| % Max Derepression LPL [%] | Ab EC50 (nM), derepression of LPL [nM] | Binder |
| --- | --- | --- |
| 110 | 1.65 | B2 |
| 106 | 4.07 | B3 |
| 110 | 1.79 | B4 |

Molecular target: T2, human ANGPTL3
Assay: ELISA; Ab captured by anti-human Fc; biotinylated antigen at 1.23 nM
Procedure: as §1

| OD at 560 nm [OD 560 nm] | Binder |
| --- | --- |
| 0.043 | B1 |
| 0.059 | B2 |
| 0.057 | B3 |
| 0.059 | B4 |

Molecular target: T1, human ANGPTL3/8 complex
Assay: ELISA; Ab captured by anti-human Fc; biotinylated antigen at 33.3 nM
Procedure: as §1

| OD at 560 nm [OD 560 nm] | Binder |
| --- | --- |
| 2.41 | B1 |
| 2.23 | B2 |
| 2.18 | B3 |
| 2.23 | B4 |

Molecular target: T2, human ANGPTL3
Assay: as above
Procedure: as §1

| OD at 560 nm [OD 560 nm] | Binder |
| --- | --- |
| 0.052 | B1 |
| 0.069 | B2 |
| 0.067 | B3 |
| 0.069 | B4 |

Molecular target: T3, human ANGPTL8
Assay: as above
Procedure: as §1

| OD at 560 nm [OD 560 nm] | Binder |
| --- | --- |
| 0.05 | B1 |
| 0.063 | B2 |
| 0.049 | B3 |
| 0.063 | B4 |
